# “Also recorded” adds a separate entry of the source. Where a SMILES comes first, the peptide text is derived from it. [ ]: non-standard residue; d: D form. The star is where a group is joined. ξ: configuration not given here. Dolaproine = CO[C@@H]([C@@H]1CCCN1)[C@@H](C)C(=O)O; Dil = CC[C@H](C)[C@H](NC)[C@@H](CC(=O)O)OC; NMe2Val = CC(C)[C@@H](C(=O)*)N(C)C; ξV = CC(C)C(N)C(=O)O; X1 = NOCCOCCOCCN*
# Key:
# [1] = system: MCF-7 cells (do not express Her2); assay: In vitro cytotoxicity assay, MCF-7 cells; type: cell-based; conditions: 72 hours, FIG. 7B
# Description: (§1) In Vitro Cytotoxicity Assay
# (§2) SKBR3, MCF-7 and JIMT-1 cells were cultured and assayed in DMEM (Life Technologies) with 10% (vol/vol) FBS (Gibco), 100 IU/mL penicillin, and 100 µg/mL streptomycin (Life Technologies). For the cytotoxicity assays, the cancer cell lines were plated in 96-well plates at ˜1,000 cells in 70 μL per well in culture medium and incubated overnight at 37° C. and 5% CO2. Drugs (m860 IgG1, m860 ADC and free drug nAF) were filtered (0.22 μm; Millipore) and 30 μl of serially diluted drugs in culture medium were added into the wells in duplicate and incubated at 37° C. for 72 hours. Colorimetric reagent (Promega) was then added to each well. After a 3-hour incubation at 37° C., the absorbance at 490 nm was measured, and IC50 was determined by GraphPad Prism.
# FcγRI (CD64) = FcγRI (CD64) (Homo sapiens, UniProt P12314); assay: Surface plasmon resonance (Biacore) binding to FcγRI (CD64); conditions: SPR, FcγRI immobilized on CM5 chip, 25° C., 1:1 model
# Description: (§3) Comparison of the Binding Affinities of m860 and m860 ADC to FcγRIII (CD16) and FcγRI (CD64) Measured by Surface Plasmon Resonance
# (§4) Interactions between the antibodies and CD16 and CD64 were analyzed by surface plasmon resonance technology using a Biacore™ X100 instrument (GE healthcare). CD16 or CD64 was covalently immobilized onto a sensor chip (CM5) using carbodiimide coupling chemistry. A control reference surface was prepared for nonspecific binding and refractive index changes. For analysis of the kinetics of interactions, varying concentrations of antibodies were injected at flow rate of 30 μL/min using running buffer containing 10 mmol/L HEPES, 150 mmol/L NaCl, 3 mmol/L EDTA, and 0.05% Surfactant P-20 (pH=7.4). The association and dissociation phase data were fitted simultaneously to a 1:1 model by using BIAevaluation 3.2. All the experiments were done at 25° C.
# FcγRIII (CD16) = assay: Surface plasmon resonance (Biacore) binding to FcγRIII (CD16); conditions: SPR, FcγRIII immobilized on CM5 chip, 25° C., 1:1 model
# Description: as §3, §4
# Her2 on SKBR3 cells = target: T1, Her2 on SKBR3 cells (Homo sapiens, UniProt P04626); assay: Flow cytometry binding to Her2 on SKBR3 cells; conditions: FIGS. 6A-6B
# T1 construct: SKBR3 breast cancer cells, which overexpress Her2, were detached in cell dissociation buffer; endogenous in cells; host or cells: SKBR3 breast cancer cells
# Description: SKBR3 breast cancer cells, which overexpress Her2, were detached in cell dissociation buffer and rinsed in PBS. […] Unbound antibodies were washed away with PBSA. The secondary antibody, goat anti-human IgG conjugated with PE (Sigma), was diluted at 1:100 and incubated with cells on ice for 30 minutes. Cells were washed and resuspended in PBSA buffer for flow cytometry analysis on FACSCalibur (Becton Dickinson).
# [2] = system: SKBR3 cells (overexpress Her2); assay: In vitro cytotoxicity assay, SKBR3 cells; type: cell-based; conditions: 72 hours, FIG. 7A, listed as WT m860 IgG1
# Description: as §1, §2
# [3] = system: JIMT-1 cells (moderate Her2 expression, trastuzumab-resistant patient); assay: In vitro cytotoxicity assay, JIMT-1 cells; type: cell-based; conditions: 72 hours, FIG. 7C
# Description: as §1, §2
# [4] = target: T2, cell surface-associated Her2 (Homo sapiens, UniProt P04626); assay: Binding to cell surface-associated Her2; conditions: compared with trastuzumab (Herceptin)
# T2 construct: endogenous in cells
# Her2 = Her2 (Homo sapiens, UniProt P04626); assay: Competition with Herceptin / epitope comparison; type: binding
# [5] = target: T3, Her2-ECD-Fc fusion protein (Homo sapiens, UniProt P04626); assay: Phage ELISA screening of clones panned against Her2-ECD-Fc; type: binding; conditions: five unique clones after third round of biopanning
# T3 construct: three rounds of panning against a recombinant Her2 protein ectodomain; purchased R&D systems
# Description: A naïve human Fab phage display library (a total of about […] members), constructed from peripheral blood B cells of 10 healthy donors, was used for selection of Fabs against Her2-ECD-Fc fusion protein (R&D systems) conjugated to magnetic beads (DYNABEADS™ M-270 epoxy, Invitrogen). […] After each round of incubation, the beads were washed 5 times for the first round and 15 times for the later rounds with phosphate-buffered saline containing 0.05% Tween 20 (PBST) to remove nonspecifically bound phage. The bead-bound phage were mixed with TG1 cells for 1 hour at 37° C., and the phage was amplified from the infected cells and used in the next round of biopanning. After the third round of biopanning, 190 clones were randomly picked and monoclonal phage was prepared and used for phage ELISA screening to identify the positive binders. […] The nucleotide and amino acid sequences of the m860 VH and VL domains are set forth herein as SEQ ID NOs: 1-4.
# Chain of FcγRI (CD64) (P12314 16-374, species assumed): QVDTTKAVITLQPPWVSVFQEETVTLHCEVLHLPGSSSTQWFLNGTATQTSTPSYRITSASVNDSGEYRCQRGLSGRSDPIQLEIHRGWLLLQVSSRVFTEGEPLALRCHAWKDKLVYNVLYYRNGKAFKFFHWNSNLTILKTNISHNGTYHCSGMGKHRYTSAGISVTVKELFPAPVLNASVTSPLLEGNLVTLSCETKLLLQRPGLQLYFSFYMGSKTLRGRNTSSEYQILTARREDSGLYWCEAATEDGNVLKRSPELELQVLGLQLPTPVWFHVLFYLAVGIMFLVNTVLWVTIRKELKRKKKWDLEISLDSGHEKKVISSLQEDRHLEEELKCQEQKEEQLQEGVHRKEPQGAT
Molecule,cytotoxicity [1],Kd (FcγRI (CD64)),ka (FcγRI (CD64)),kd (FcγRI (CD64)),Kd (FcγRIII (CD16)),ka (FcγRIII (CD16)),kd (FcγRIII (CD16)),binding activity to Her2 on SKBR3 cells before and after nAF conjugation (Her2 on SKBR3 cells),cytotoxicity [2],cytotoxicity [3],affinity for cell surface-associated Her2 [4],competition with Herceptin / epitope relative to trastuzumab (Her2),binding activity in phage ELISA screening [5]
"CC[C@H](C)[C@@H]([C@@H](CC(=O)N1CCC[C@H]1[C@H](OC)[C@@H](C)C(=O)N[C@@H](Cc1ccccc1)C(=O)NCCOCCOCCON)OC)N(C)C(=O)C(NC(=O)[C@H](C(C)C)N(C)C)C(C)C (stereo partly shown) [nAF, Auristatin F with a non-cleavable linker attached at the C-terminus] (NMe2Val-[ξV][Dil][Dolaproine]F-X1)",significant cytotoxicity,–,–,–,–,–,–,–,–,–,–,–,–
"M860 IgG1: Her2-specific human monoclonal antibody from naïve phage display Fab library, VH SEQ ID NO: 2, VL SEQ ID NO: 4, converted to full size human IgG1 (antibody, V domains shown, IgG1 constant regions without entry) VH: EVQLVQSGAEVKKPGESLKISCKGSGYSFTSYWIGWVRQMPGKGLEWMGIIYPGDCDRSDTRYSPSFQGQVTISADKSISTAYLQWSSLKASDTAMYYCARQYSGYDRYYFDYWGQGTLVTVSS VL: QTVVTQEPSFSVSPGGTVTLTCGLNSGSVSTRHYPSWYQQTPGQAPRTLIYSTDICDRRSSGAPSHISGSILGNKAALTITGAQADDASDYYCALYLGNGIAVFGSGTKVTVLG",–,22.5 nM,44790 M⁻¹ s⁻¹,0.001007 s⁻¹,1500 nM,11080 M⁻¹ s⁻¹,0.01608 s⁻¹,not impacted by nAF conjugation,did not exhibit any cytotoxicity; also recorded: did not show any cytotoxicity,little effect,comparable to that of trastuzumab,binds to a different epitope,highest binding activity

# Reference: US9738726B2, “HER2-specific monoclonal antibodies and conjugates thereof” (The United States of America, as represented by the …, priority 2013, dated 2017)
